Km and kcat data for two proteins are collected here from article PMC4048220, “Exploring the Electron Transfer Pathway in the Oxidation of Avermectin by CYP107Z13 in Streptomyces ahygroscopicus ZB01” (PLoS ONE, 2014).

Substrate in data set [1]: NC(=O)C1=CN([C@@H]2O[C@H](COP(=O)(O)OP(=O)(O)OC[C@H]3O[C@@H](n4cnc5c(N)ncnc54)[C@H](O)[C@@H]3O)[C@@H](O)[C@H]2O)C=CC1
As to the kind of experiment: spectrophotometric DCPIP reduction. The data set is classed as biochemical, Streptomyces hygroscopicus. The following applies: DCPIP as electron acceptor.

Substrate in data set [2]: NC(=O)C1=CN([C@@H]2O[C@H](COP(=O)(O)OP(=O)(O)OC[C@H]3O[C@@H](n4cnc5c(N)ncnc54)[C@H](O)[C@@H]3O)[C@@H](O)[C@H]2O)C=CC1
As to the kind of experiment: spectrophotometric DCPIP reduction. The data set is classed as biochemical, Streptomyces ahygroscopicus. The following applies: DCPIP as electron acceptor.

B1: FdR18 (Streptomyces hygroscopicus) (protein)
chain: MVDAHQTFVIVGGGLAGAKAAETLRAEGFTGRVILICDERDHPYERPPLSKGYLLGKEERDSVFVHEPAFYAQARIELHLGQPAVHLDPAARTVRLGDGTLIAYDKLLLATGAEPRRLDVPGTGLAGVHHLRRLAHAERLRGVLASLGRENGHLVIAGAGWIGLEVAAAARSYGAEVTIIEPEPTPLHGILGPELGALFTDLHAEHGVRFHFGARLTEIVGQDGMVVSVRTDDGEEHPAHDVLAAIGAAPRTALAEQAGLDVVDRADGGGIAVDAALRTSDPFIHAAGDVAAADHPLLDTRLRVEHWANALNGGPAAARAMLGQDISYDRVPYFFSDQYDLGMEYSGYAPPGSYDQVVCRGDVGKREFIAFWLREGRVLAGMNVNVWDVAGDVQQLIRSGTPLDPEKLTDPTVPLTSLLP
notes: FAD flavoprotein; pRSET-b (vector His tag), E. coli BL21(DE3), Ni-Sepharose purified; GTG start changed to ATG; cloning primers encode N-terminal MVDAHQT, C-terminal LTSLLP
With B1, in data set [1], the Km – broadly, the concentration of substrate that gives half-maximal velocity – is recorded as 64 µM and the catalytic constant (kcat) – broadly, the maximal rate divided by the concentration of active sites – was 2.02 s⁻¹.

B2: FdR28 (Streptomyces ahygroscopicus; V1M) (protein)
chain: MVVGASLAGLRAAEALRGEGFTGSLTMIGDELGEPYDRPPLSKQVLTGWVPADNTKLPRRRDVDAEWLLGVPASGLDLANNHVRLADGRQVPFDRVPISTGVRARPWFVESEAALDGVFVVRTREHAEALQRALAAGPSRVLVIGAGFTGSEIASVCRERDIPVTVAELAPAPLVGALGAMIGDVAADVQRAHGVDLRCGVKVTQLEGDAQGRLRRAHFDDGTTVDADVAVVALGGIRNTDWLRDSGLAAGVWGIACDTGCRALDLNGLVTDDVFVAGDVARCPNPIYEYRLISLEHWANAVEQAEVAAHNMVSGQADRWPHLTLPLFWSIQFGINIKSVGVPTFADEVVVTQGSVPDHRFVAAYGYRGRVTAAVSFNNAKWLDHHRRLIETAAPFPPLCPTPDQPADTKPVPVDFPGPALLAQGATVVVTGHDPSERRVTAAYQHR
notes: FAD flavoprotein; pRSET-b (vector His tag), E. coli BL21(DE3), Ni-Sepharose purified; GTG start changed to ATG; cloning primers encode N-terminal MVVGAS, C-terminal TAAYQHR
Take B2: in data set [2], the Michaelis constant (Km) is 25.4 µM and the catalytic constant (kcat) was found to be 6.43 s⁻¹.
